Consider three molecules from article PMC9243176, “Multifaceted regulation of the sumoylation of the Sgs1 DNA helicase” (The Journal of Biological Chemistry, 2022).

Data set [1] has as its target T1, GST-Esc2-5E (budding yeast, UniProt Q06340 1-456, K179E | K182E | K183E | K197E | R198E).
T1 construct: Esc2 of budding yeast with five basic residues of the midregion (MR) replaced by glutamic acid; The methods describe a pET24a construct; source: expressed and purified by published procedures
T1 sequence (looked up): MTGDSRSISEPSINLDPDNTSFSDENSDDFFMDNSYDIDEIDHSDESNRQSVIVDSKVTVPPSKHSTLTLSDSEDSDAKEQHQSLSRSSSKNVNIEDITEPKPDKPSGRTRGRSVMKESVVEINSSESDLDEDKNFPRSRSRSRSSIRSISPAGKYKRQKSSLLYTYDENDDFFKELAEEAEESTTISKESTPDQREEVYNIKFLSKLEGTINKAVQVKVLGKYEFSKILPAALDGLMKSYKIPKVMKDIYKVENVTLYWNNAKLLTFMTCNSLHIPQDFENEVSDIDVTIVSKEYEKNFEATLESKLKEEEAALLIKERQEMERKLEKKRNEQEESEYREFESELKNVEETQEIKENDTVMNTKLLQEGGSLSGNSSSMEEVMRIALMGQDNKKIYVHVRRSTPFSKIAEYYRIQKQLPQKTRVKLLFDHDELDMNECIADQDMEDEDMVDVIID
Put plainly: pull-down; GST or GST-tagged Esc2 or variants (2.2 μM) incubated with 3.6 μM Ubc9 in T buffer (25 mM Tris-Cl pH 7.4, 10% glycerol, 0.5 mM EDTA, 0.01% Igepal, 1 mM DTT) with 80 mM KCl, 30 min at 4 °C; captured on Glutathione Sepharose 4B; SDS-PAGE, Coomassie blue stain. As to conditions: both partners purified.

The target of data set [2] is T2, GST-Esc2-MRΔ (budding yeast, UniProt Q06340 1-456, truncating residues 154 to 198).
T2 construct: Esc2 of budding yeast lacking the midregion (MR), residues 154 to 198; The methods describe a pET24a construct; source: expressed and purified by published procedures
T2 sequence (looked up): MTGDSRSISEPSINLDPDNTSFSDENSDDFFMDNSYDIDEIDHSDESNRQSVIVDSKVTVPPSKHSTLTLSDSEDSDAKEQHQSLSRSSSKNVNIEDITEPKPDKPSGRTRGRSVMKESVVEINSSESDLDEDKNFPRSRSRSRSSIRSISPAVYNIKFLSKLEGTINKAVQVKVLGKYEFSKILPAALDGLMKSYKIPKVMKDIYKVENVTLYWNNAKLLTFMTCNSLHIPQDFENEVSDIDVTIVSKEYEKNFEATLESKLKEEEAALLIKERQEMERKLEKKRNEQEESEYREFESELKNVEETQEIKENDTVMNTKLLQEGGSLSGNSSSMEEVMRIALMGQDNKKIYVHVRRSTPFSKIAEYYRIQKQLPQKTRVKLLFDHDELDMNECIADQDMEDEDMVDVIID
The description is as above. The settings on record: both partners purified.

In data set [3] the target is T3, Sgs1;Top3;Rmi1 (Saccharomyces cerevisiae;Saccharomyces …, UniProt P35187;P13099;Q02685 1-1447;1-656;1-241, ||). Put plainly: EMSA; 5-40 nM STR, 5 nM DNA; 35 mM Tris-HCl pH 7.5, 1 mM DTT, 100 ug/ml BSA, 5 mM MgCl2, 130 mM KCl, 30 C, 10 min; native PAGE in TAE (6.5% STR and E3, 7% Esc2). The settings on record: protein: recombinant;recombinant;recombinant; tags: Flag;V5;GST; copies: 1;1;1; four-way Holliday junction of 4 strands.

Data set [4] deals with T4, Esc2-MRΔ (Saccharomyces cerevisiae, UniProt Q06340 1-456, del154-198).
T4 sequence: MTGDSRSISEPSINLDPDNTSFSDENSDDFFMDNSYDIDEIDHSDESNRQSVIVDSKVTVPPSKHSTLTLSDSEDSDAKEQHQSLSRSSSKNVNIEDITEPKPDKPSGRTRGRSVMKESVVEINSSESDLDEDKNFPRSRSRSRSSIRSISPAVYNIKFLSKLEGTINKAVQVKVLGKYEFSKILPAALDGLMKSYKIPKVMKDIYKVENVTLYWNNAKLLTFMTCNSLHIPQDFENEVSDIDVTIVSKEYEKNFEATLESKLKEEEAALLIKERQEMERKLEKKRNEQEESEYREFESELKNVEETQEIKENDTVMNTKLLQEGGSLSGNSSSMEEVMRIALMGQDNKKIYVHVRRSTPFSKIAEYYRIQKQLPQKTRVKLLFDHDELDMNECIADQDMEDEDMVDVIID
Put plainly: EMSA; 5-80 nM protein, 5 nM DNA; 35 mM Tris-HCl pH 7.5, 1 mM DTT, 100 ug/ml BSA, 5 mM MgCl2, 130 mM KCl, 30 C, 10 min; native PAGE in TAE (6.5% STR and E3, 7% Esc2). The settings on record: protein: recombinant.

Data set [5] concerns the target T5, Esc2-5E (Saccharomyces cerevisiae, UniProt Q06340 1-456, K179E;K182E;K183E;K197E;R198E).
T5 sequence: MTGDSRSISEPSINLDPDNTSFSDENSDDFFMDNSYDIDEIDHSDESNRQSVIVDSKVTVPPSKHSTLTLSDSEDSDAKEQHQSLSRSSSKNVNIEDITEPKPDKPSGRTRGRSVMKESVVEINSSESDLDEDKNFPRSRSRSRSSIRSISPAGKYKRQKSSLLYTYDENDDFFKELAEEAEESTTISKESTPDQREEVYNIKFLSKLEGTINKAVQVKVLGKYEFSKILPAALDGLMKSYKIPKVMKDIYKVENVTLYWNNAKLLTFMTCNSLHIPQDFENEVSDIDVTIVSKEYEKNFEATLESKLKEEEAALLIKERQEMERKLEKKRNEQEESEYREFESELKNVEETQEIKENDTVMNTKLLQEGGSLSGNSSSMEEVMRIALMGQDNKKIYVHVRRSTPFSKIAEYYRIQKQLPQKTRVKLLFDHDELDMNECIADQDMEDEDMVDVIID
The description is as above. The settings on record: protein: recombinant.

The target of data set [6] is T6, Mms21;Smc5 (Saccharomyces cerevisiae;Saccharomyces …, UniProt P38632;Q08204 1-267;1-1093, |).
T6 sequence 1: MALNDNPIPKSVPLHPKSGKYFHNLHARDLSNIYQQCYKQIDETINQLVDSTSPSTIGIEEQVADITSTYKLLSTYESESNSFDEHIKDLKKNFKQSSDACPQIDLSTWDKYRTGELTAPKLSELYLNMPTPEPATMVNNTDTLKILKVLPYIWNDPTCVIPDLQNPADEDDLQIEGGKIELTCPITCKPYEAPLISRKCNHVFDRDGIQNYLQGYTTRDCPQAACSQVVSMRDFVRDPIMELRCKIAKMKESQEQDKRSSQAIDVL
T6 sequence 2: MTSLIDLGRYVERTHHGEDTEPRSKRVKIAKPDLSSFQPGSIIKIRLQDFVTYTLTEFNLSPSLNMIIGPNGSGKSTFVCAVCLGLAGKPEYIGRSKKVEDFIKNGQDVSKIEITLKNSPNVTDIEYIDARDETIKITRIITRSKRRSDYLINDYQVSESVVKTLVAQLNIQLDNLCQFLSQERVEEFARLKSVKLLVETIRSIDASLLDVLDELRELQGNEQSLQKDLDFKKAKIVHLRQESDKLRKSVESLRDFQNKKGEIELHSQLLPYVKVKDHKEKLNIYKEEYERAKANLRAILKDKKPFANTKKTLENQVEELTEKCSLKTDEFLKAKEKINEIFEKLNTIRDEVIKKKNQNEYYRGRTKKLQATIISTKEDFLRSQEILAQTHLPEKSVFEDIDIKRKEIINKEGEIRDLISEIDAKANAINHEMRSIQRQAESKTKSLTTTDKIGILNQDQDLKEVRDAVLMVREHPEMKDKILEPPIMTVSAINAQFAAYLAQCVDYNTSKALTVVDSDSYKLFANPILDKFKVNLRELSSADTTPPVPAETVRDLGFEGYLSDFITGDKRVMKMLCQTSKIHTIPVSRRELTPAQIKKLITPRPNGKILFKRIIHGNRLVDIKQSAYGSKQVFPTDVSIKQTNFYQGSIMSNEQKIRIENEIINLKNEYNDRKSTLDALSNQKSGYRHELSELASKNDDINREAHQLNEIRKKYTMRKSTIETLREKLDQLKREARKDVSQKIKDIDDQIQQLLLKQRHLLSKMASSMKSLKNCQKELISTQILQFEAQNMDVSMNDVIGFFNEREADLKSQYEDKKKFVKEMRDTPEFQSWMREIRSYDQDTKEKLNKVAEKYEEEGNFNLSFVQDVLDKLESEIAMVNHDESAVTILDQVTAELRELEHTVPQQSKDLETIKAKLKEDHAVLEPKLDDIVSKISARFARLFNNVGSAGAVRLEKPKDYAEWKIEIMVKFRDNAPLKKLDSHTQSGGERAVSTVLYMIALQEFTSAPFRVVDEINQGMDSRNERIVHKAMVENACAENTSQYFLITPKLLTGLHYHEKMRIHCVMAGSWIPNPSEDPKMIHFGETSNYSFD
Put plainly: EMSA; 5-40 nM E3, 5 nM DNA; less pronounced than STR; 35 mM Tris-HCl pH 7.5, 1 mM DTT, 100 ug/ml BSA, 5 mM MgCl2, 130 mM KCl, 30 C, 10 min; native PAGE in TAE (6.5% STR and E3, 7% Esc2). The settings on record: protein: recombinant;recombinant; tags: ;; copies: 1;1; four-way Holliday junction of 4 strands.

In data set [7] the target is T7, Esc2 (Saccharomyces cerevisiae, UniProt Q06340 1-456).
T7 sequence: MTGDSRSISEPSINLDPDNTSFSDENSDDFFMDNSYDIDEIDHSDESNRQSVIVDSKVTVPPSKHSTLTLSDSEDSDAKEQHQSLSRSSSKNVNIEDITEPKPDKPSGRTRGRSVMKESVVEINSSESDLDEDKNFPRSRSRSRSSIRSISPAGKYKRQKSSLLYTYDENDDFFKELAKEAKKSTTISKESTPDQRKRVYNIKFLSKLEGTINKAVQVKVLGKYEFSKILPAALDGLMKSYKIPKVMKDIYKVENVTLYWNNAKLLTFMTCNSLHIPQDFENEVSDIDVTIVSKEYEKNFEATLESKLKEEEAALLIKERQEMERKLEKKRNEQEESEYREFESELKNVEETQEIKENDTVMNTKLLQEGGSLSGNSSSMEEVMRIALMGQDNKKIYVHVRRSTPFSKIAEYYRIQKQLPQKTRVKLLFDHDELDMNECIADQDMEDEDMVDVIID
Description: EMSA; 5-80 nM Esc2, 5 nM DNA; strong preference over dsDNA; 35 mM Tris-HCl pH 7.5, 1 mM DTT, 100 ug/ml BSA, 5 mM MgCl2, 130 mM KCl, 30 C, 10 min; native PAGE in TAE (6.5% STR and E3, 7% Esc2). As to conditions: protein: recombinant; four-way Holliday junction of 4 strands.

The target in data set [8] is T3, Sgs1;Top3;Rmi1. Description: EMSA; 5-40 nM STR, 5 nM DNA; similar to HJ; 35 mM Tris-HCl pH 7.5, 1 mM DTT, 100 ug/ml BSA, 5 mM MgCl2, 130 mM KCl, 30 C, 10 min; native PAGE in TAE (6.5% STR and E3, 7% Esc2). As to conditions: protein: recombinant;recombinant;recombinant; tags: Flag;V5;GST; copies: 1;1;1; blunt.
Setting [9] is: four-way Holliday junction of 4 strands.

T3 sequence (P35187 whole entry, chain 1 of 3): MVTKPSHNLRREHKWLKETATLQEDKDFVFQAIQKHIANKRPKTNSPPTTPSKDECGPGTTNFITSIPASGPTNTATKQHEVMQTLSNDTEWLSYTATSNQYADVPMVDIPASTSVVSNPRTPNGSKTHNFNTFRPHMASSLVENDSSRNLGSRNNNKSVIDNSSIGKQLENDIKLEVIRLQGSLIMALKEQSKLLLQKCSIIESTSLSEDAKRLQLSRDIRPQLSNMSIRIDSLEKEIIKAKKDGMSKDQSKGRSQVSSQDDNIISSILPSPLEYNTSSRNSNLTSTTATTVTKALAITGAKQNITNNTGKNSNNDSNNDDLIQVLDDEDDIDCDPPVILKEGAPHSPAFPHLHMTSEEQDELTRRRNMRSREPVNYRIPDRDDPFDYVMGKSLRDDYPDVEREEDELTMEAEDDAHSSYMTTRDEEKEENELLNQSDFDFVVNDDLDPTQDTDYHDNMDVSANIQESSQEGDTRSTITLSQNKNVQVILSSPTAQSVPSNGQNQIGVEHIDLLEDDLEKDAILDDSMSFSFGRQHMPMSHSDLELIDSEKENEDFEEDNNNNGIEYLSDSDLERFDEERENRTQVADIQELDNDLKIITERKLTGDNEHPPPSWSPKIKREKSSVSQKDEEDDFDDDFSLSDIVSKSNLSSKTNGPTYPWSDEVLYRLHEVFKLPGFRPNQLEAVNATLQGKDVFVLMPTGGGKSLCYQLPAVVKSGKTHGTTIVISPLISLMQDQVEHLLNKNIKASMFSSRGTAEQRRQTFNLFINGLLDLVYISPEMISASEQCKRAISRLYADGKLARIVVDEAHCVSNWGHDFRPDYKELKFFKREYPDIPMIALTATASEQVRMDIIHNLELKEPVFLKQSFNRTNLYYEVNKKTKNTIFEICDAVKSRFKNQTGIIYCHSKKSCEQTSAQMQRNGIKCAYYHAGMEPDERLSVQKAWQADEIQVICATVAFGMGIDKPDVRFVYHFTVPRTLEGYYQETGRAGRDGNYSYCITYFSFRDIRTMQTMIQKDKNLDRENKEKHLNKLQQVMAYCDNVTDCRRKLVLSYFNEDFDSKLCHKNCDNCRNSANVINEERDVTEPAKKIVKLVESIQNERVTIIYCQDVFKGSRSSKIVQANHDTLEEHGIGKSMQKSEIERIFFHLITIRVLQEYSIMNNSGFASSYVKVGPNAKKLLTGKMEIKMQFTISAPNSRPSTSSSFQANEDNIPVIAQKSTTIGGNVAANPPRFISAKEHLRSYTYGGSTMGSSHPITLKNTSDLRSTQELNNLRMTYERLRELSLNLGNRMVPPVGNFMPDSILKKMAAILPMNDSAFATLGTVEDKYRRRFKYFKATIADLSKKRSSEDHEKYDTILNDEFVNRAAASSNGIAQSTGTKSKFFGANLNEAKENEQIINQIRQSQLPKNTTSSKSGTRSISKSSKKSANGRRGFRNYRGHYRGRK
T3 sequence (P13099 whole entry, chain 2 of 3): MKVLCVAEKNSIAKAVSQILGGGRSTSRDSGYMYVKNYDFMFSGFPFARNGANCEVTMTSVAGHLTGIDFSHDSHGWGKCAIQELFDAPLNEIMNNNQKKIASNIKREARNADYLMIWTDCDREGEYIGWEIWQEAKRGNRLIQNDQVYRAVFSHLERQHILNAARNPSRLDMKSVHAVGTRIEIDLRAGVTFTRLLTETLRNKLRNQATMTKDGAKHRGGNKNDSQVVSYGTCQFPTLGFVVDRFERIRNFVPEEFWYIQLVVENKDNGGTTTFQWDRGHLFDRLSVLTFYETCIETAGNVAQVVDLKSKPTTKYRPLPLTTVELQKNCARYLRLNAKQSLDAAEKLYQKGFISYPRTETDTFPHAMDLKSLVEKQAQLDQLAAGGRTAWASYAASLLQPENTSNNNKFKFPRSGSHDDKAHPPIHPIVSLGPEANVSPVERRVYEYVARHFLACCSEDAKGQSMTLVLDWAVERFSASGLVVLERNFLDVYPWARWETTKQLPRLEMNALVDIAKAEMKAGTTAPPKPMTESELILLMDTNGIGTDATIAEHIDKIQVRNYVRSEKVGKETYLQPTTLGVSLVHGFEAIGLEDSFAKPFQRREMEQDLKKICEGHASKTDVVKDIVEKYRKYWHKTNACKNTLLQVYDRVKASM
T3 sequence (Q02685 whole entry, chain 3 of 3): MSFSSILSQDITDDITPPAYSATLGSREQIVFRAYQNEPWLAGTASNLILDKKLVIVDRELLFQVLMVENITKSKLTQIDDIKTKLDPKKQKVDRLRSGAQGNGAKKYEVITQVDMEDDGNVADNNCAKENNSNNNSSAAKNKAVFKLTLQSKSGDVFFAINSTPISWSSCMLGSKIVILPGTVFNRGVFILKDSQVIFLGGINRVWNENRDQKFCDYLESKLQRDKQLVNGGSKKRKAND

B1: Ubc9 (SUMO E2) (enzyme, budding yeast, UniProt P50623 1-157, looked up)
chain: MSSLCLQRLQEERKKWRKDHPFGFYAKPVKKADGSMDLQKWEAGIPGKEGTNWAGGVYPITVEYPNEYPSKPPKVKFPAGFYHPNVYPSGTICLSILNEDQDWRPAITLKQIVLGVQDLLDSPNPNSPAQEPAWRSFSRNKAEYDKKVLLQAKQYSK
notes: Ubc9, the SUMO E2 enzyme of budding yeast; source: E. coli, purified (previously published procedures)
As to B1, the binding result in data set [1] and in data set [2] was “binds” throughout.

B2: HJ-DNA (H3/H5/H7/H8) (structured_DNA)
DNA 1: TTGATAAGAGGTCATTTGAATTCATGGCTTAGAGCTTAATTGCTGAATCTGGTGCTGGGATCCAACATGTTTTAAATATG
DNA 2: CATATTTAAAACATGTTGGATCCCAGCACCAGATTCAGCATACGTTACCGATCGTACGTTCGATGCTGGCTACTGCTAGC
DNA 3: GCTAGCAGTAGCCAGCATCGAACGTACGATCGGTAACGTAGTCGATTATCGAGATCAAGCTAGCATAGCCATAGCGCGAC
DNA 4: GTCGCGCTATGGCTATGCTAGCTTGATCTCGATAATCGACATTAAGCTCTAAGCCATGAATTCAAATGACCTCTTATCAA
Regarding B2, the binding result in data set [3] is given as “binds”; in data set [4] (setting [9]), “no binding”; in data set [5] (setting [9]), “no binding”; in data set [6] it was “binds”; in data set [7] it was “binds”.

B3: dsDNA (H3/H4) (dsDNA)
DNA 1: TTGATAAGAGGTCATTTGAATTCATGGCTTAGAGCTTAATTGCTGAATCTGGTGCTGGGATCCAACATGTTTTAAATATG
DNA 2: CATATTTAAAACATGTTGGATCCCAGCACCAGATTCAGCAATTAAGCTCTAAGCCATGAATTCAAATGACCTCTTATCAA
Turning to B3, the results for the binding result in data set [4] (blunt), in data set [5] (blunt) and in data set [8] were “no binding”, “no binding” and “binds”, respectively.
